According to the supplement of paper PMC9170038:

Tested on: MS2 coat protein
Assay: apparent KD of MS2 coat protein; designed switch direction (-1 OFF switch, 1 ON switch): -1; higher = weaker reporter binding
Procedure, shortened: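 Designed RNA switches with common flanks were made on Illumina chips by stalled E. coli RNA polymerase. Titration with SNAP-549-labelled MS2 coat protein doubled from 0.7 or 1.5 nM up to 3 µM. Apparent KD is each design's median over clusters after curve-fitting normalised fluorescence.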

[1] = Eterna round: R95, input ligand: microRNA oligo, concentration not stated
[2] = input ligand: microRNA oligo, concentration not stated
[3] = Eterna round: R95, input ligand: FMN 200 uM
[4] = Eterna round: R95, input ligand: none

GAUCGACAUGAGGAUCACCCAUGUCAGGAUAUCUACAUUGAAGCUUCGGCUUCAAUGUAGAGAAGGGACAUAAU [E1/13-B1] (Eterna round: R97, puzzle: Exclusion 1)
apparent KD of MS2 coat protein (input ligand: FMN 200 uM): 38.6 nM | apparent KD of MS2 coat protein (input ligand: none): 39.7 nM

GUCCUUUCUGAGGAUAUUAUCCUUUUCGAUUGAUAAGAAGGCAGUACAUGAGGAUCACCCAUGUGGGUUGUCUG [Polaris30] (Eterna round: R97, puzzle: Exclusion 6)
apparent KD of MS2 coat protein (input ligand: FMN 200 uM): 45.8 nM | apparent KD of MS2 coat protein (input ligand: none): 38.2 nM

CCGGCAUAGGAGGAUAUAGGAGUCGAUAGACACCUAGAAGGCCUGACAUGAGGAUCACCCAUGUGUCCUACCGG [Fiskers Ex 6 - 97] (puzzle: Exclusion 6)
apparent KD of MS2 coat protein [1]: 12.5 nM

AGCUGUGGCCGAGGAUAUCUAAUAAUCCCAACCGAAAUAUAAUCGGACAUGAGGAUCACCCAUGUAGAGAAGGCGGUCUCAGCA [Eli eng2 - 066] (Eterna round: R96, puzzle: Exclusion NG 2)
apparent KD of MS2 coat protein [2]: 96.6 nM

UUUUGGCAGGUAAUUAUUAACAUGAGGAUCACCCAUGUGCAUCCAAAAUUACUUUUAGAUCAAGCUCGUCUUAUAUA [JR_STOV1_Sub088] (Eterna round: R97, puzzle: Sensor, turn-off variant 1)
apparent KD of MS2 coat protein (input ligand: FMN 200 uM): 34 nM | apparent KD of MS2 coat protein (input ligand: none): 35.2 nM

CGUAUGUAAGGAUAUUAGUAGUAGUCAGAAUAGACUAUUACUGAGAAGGUACAUGAGGAUCACCCAUGUUAGCG [Eli x4 4.15] (Eterna round: R97, puzzle: Exclusion 4)
apparent KD of MS2 coat protein (input ligand: FMN 200 uM): 229 nM | apparent KD of MS2 coat protein (input ligand: none): 31.6 nM

AACUCUGAGGAGGAUAUACAGUGCGAAAGGACAGUAGAAGGCUUCACAUGAGGAUCACCCAUGUCGAAUAGUGA [EX6 #78] (Eterna round: R97, puzzle: Exclusion 6)
apparent KD of MS2 coat protein (input ligand: FMN 200 uM): 68 nM | apparent KD of MS2 coat protein (input ligand: none): 51.9 nM

AGUACUAUCACGAAAGUGAUAGUACAACGAGCUUGUGAAACAUGAGGAUCACCCAUGUCCUCAUGAGUUCGUCUUAU [JL turnoff v2 67] (Eterna round: R96, puzzle: Sensor v2, turn-off variant 2)
apparent KD of MS2 coat protein (input ligand: FMN 200 uM): 13.9 nM | apparent KD of MS2 coat protein [2]: 65.4 nM | apparent KD of MS2 coat protein (input ligand: none): 15.7 nM

UUUUUAGUGCUUUUUAAGUACAUGAGGAUCACCCAUGUACUUGUCUGGUGGUCCGGACAAGCUUUUUGCUCGUCUAC [Sensor v3 - turn-off variant 1 - 2] (puzzle: Sensor v3, turn-off variant 1)
apparent KD of MS2 coat protein [3]: 49.5 nM | apparent KD of MS2 coat protein [1]: 30.5 nM | apparent KD of MS2 coat protein [4]: 54.3 nM

GUAAUACAUGAGGAUCACCCAUGUUAGGAUAUCUGCAGGACGUCUCCCGUAUAUCCGUAGAGAAGGGACAGUGG [Eternabot (L1) Solution 20] (Eterna round: R97, puzzle: Exclusion 1)
apparent KD of MS2 coat protein (input ligand: FMN 200 uM): 43 nM | apparent KD of MS2 coat protein (input ligand: none): 33.6 nM

AUGAGGUUAGGAUAUACAUGAGGAUCACCCAUGUUGAAAGGUUAGAUAGGCGAAGCUGGUAGAAGGAACGGAGC [JR_Exclu3_Sub055] (puzzle: Exclusion 3)
apparent KD of MS2 coat protein [3]: 27.9 nM | apparent KD of MS2 coat protein [1]: 29.8 nM | apparent KD of MS2 coat protein [4]: 32.8 nM

GCGGAUUAUGUAGGAUAUCGGUCAGUUUCUGAUCGAGAAGGACAUGAGGAUCACCCAUGUAAAUUGCCCGCUUUGUGGGUCCGC [JL ENG1 3.62] (Eterna round: R96, puzzle: Exclusion NG 1)
apparent KD of MS2 coat protein (input ligand: FMN 200 uM): 41.7 nM | apparent KD of MS2 coat protein [2]: 15 nM | apparent KD of MS2 coat protein (input ligand: none): 15.7 nM

CAGUACUGAGGAUAUACAUGAGGAUCACCCAUGUUCUUCGGCUAGGAAACUAGCAAAGGUAGAAGGCAGUACUG [Salish 065 m16] (Eterna round: R97, puzzle: Exclusion 3)
apparent KD of MS2 coat protein (input ligand: FMN 200 uM): 285 nM | apparent KD of MS2 coat protein (input ligand: none): 15.7 nM

CAUUAUUAUCGAGGAUAUCCUAUUGAAAUUCUGGGAGAAGGCGGACUCAACAUGAGGAUCACCCAUGUAAGACGGGUGCUAGGG [Ex NG1 #25] (Eterna round: R96, puzzle: Exclusion NG 1)
apparent KD of MS2 coat protein (input ligand: FMN 200 uM): 202 nM | apparent KD of MS2 coat protein [2]: 93.1 nM | apparent KD of MS2 coat protein (input ligand: none): 157 nM

AAUUUGCAAGCGAGAUCCCACAUGAGGAUCACCCAUGUGCUCGUCUUAUAAGGUACUGUGACGAGAGUCACGGUACC [Mat - Sensor, turn-off var - Eli Mod - D91] (Eterna round: R97, puzzle: Sensor, turn-off variant 1)
apparent KD of MS2 coat protein (input ligand: FMN 200 uM): 15.6 nM | apparent KD of MS2 coat protein (input ligand: none): 12.1 nM

CGGUGUAGAGGAUAUACGUGGAUGUAAGUUCAUGAUAUUUUACAUGAGGAUCACCCAUGUAGAAGGCUAUAGCG [JR_Ex2_Sub079] (Eterna round: R97, puzzle: Exclusion 2)
apparent KD of MS2 coat protein (input ligand: FMN 200 uM): 36.2 nM | apparent KD of MS2 coat protein (input ligand: none): 351 nM

GCUCGUGGGCAAGGAUAUCCUACGCUGUUCUGGUUCGUGUCUGUCACAUGAGGAUCACCCAUGUGGGAGAAGGUGCAUUUGGGU [Design 56] (Eterna round: R96, puzzle: Exclusion NG 2)
apparent KD of MS2 coat protein (input ligand: FMN 200 uM): 18.2 nM | apparent KD of MS2 coat protein [2]: 15.9 nM | apparent KD of MS2 coat protein (input ligand: none): 20.6 nM

GGGAGUGAAGGAUAUACAUGAGGAUCACCCAUGUGGGAGGAGAGAGGUGAGGAGGCUGGUAGAAGGUCAGGAUG [JR_Exclusion3_Sub006] (puzzle: Exclusion 3)
apparent KD of MS2 coat protein [1]: 48.3 nM

AUUUUAAUAUAGGAUAUCGAAUUUAUUAUUUAACGAGAAGGAUGAACAUGAGGAUCACCCAUGUGGUAUCAUGG [JL-ex6-3.03] (puzzle: Exclusion 6)
apparent KD of MS2 coat protein [3]: 214 nM | apparent KD of MS2 coat protein [1]: 263 nM | apparent KD of MS2 coat protein [4]: 178 nM

GGAGGAAACGUAGGAUAUUGAAUAAAGCGGAAACGCAAGACAUGAGGAUCACCCAUGUGUCCGGACGAGAAGGGCGAAGAAGAA [AK 1] (Eterna round: R96, puzzle: Exclusion NG 2)
apparent KD of MS2 coat protein (input ligand: FMN 200 uM): 59.8 nM | apparent KD of MS2 coat protein [2]: 60.1 nM | apparent KD of MS2 coat protein (input ligand: none): 80.8 nM

CUAGCGAUUGUAGGAUAUCGGACUGUUUCAGUCUGAGAAGGACAUGAGGAUCACCCAUGUGAUGCUACGUGAGUAGCACGCUAG [JL ENG1 3.85] (Eterna round: R96, puzzle: Exclusion NG 1)
apparent KD of MS2 coat protein (input ligand: FMN 200 uM): 76.9 nM | apparent KD of MS2 coat protein [2]: 20 nM | apparent KD of MS2 coat protein (input ligand: none): 30.5 nM

UGUAGUUCAGGAUAUGAUGUAUAAUACAUGAGGAUCACCCAUGUAGAUCCUGAAUUUACAUCAGAAGGGAAUAUUU [JL-ex5-4.58 Brourd mod] (Eterna round: R97, puzzle: Exclusion 5)
apparent KD of MS2 coat protein (input ligand: FMN 200 uM): 20.4 nM | apparent KD of MS2 coat protein (input ligand: none): 15.4 nM

ACUGGAUGCAAGCAGGUCCACAUGAGGAUCACCCAUGUUCGUCGGCCAGCAUCGGCUUCUACCGCAAGCCGCGUGCA [Eternabot (L1) Solution 27] (Eterna round: R97, puzzle: Sensor, turn-off variant 1)
apparent KD of MS2 coat protein (input ligand: FMN 200 uM): 15.9 nM | apparent KD of MS2 coat protein (input ligand: none): 18.8 nM

ACAUGUGUUGUAGGAUAUAGGAGACAUGAGGAUCACCCAUGUUGAUUCAUGUCUAUGGAAACGUCCUAGAAGGACGACAAUAUG [Ex NG2 #19] (Eterna round: R96, puzzle: Exclusion NG 2)
apparent KD of MS2 coat protein (input ligand: FMN 200 uM): 283 nM | apparent KD of MS2 coat protein [2]: 179 nM | apparent KD of MS2 coat protein (input ligand: none): 272 nM

AGAUCGUCAGGAUAUACAUGAGGAUCACCCAUGUGUAGUUCCAAUUGGACUACAACAUGUAGAAGGGACGAUCG [Exclusion 3 (MOD1 of #1 Marzena11)] (Eterna round: R97, puzzle: Exclusion 3)
apparent KD of MS2 coat protein (input ligand: FMN 200 uM): 1060 nM | apparent KD of MS2 coat protein (input ligand: none): 675 nM

ACCUUACAUGAGGAUCACCCAUGUCAGGAUAUCUCGGGCGGCCAAGGGCCGGCCGCCCAGAGAAGGGACGAGGA [Inusla] (puzzle: Exclusion 1)
apparent KD of MS2 coat protein [1]: 12.1 nM
